# Results as given in article PMC11573789.
# B1: Upf1-SmBiT [S. cerevisiae] / Dbp2 [S. cerevisiae] (parent)
# chain 1: MVGSGSHTPYDISNSPSDVNVQPATQLNSTLVEDDDVDNQLFEEAQVTETGFRSPSASDNSCAYCGIDSAKCVIKCNSCKKWFCNTKNGTSSSHIVNHLVLSHHNVVSLHPDSDLGDTVLECYNCGRKNVFLLGFVSAKSEAVVVLLCRIPCAQTKNANWDTDQWQPLIEDRQLLSWVAEQPTEEEKLKARLITPSQISKLEAKWRSNKDATINDIDAPEEQEAIPPLLLRYQDAYEYQRSYGPLIKLEADYDKQLKESQALEHISVSWSLALNNRHLASFTLSTFESNELKVAIGDEMILWYSGMQHPDWEGRGYIVRLPNSFQDTFTLELKPSKTPPPTHLTTGFTAEFIWKGTSYDRMQDALKKFAIDKKSISGYLYYKILGHQVVDISFDVPLPKEFSIPNFAQLNSSQSNAVSHVLQRPLSLIQGPPGTGKTVTSATIVYHLSKIHKDRILVCAPSNVAVDHLAAKLRDLGLKVVRLTAKSREDVESSVSNLALHNLVGRGAKGELKNLLKLKDEVGELSASDTKRFVKLVRKTEAEILNKADVVCCTCVGAGDKRLDTKFRTVLIDESTQASEPECLIPIVKGAKQVILVGDHQQLGPVILERKAADAGLKQSLFERLISLGHVPIRLEVQYRMNPYLSEFPSNMFYEGSLQNGVTIEQRTVPNSKFPWPIRGIPMMFWANYGREEISANGTSFLNRIEAMNCERIITKLFRDGVKPEQIGVITPYEGQRAYILQYMQMNGSLDKDLYIKVEVASVDAFQGREKDYIILSCVRANEQQAIGFLRDPRRLNVGLTRAKYGLVILGNPRSLARNTLWNHLLIHFREKGCLVEGTLDNLQLCTVQLVRPQPRKTERPMNAQFNVESEMGDFPKFQDFDAQSMVSFSGQIGDFGNAFVDNTELSSYINNEYWNFENFKSAFSQKQNRNEIDDRNLYQEEASHLNSNFARELQREEQKHELSKDFSNLGI
# chain 2: MTYGGRDQQYNKTNYKSRGGDFRGGRNSDRNSYNDRPQGGNYRGGFGGRSNYNQPQELIKPNWDEELPKLPTFEKNFYVEHESVRDRSDSEIAQFRKENEMTISGHDIPKPITTFDEAGFPDYVLNEVKAEGFDKPTGIQCQGWPMALSGRDMVGIAATGSGKTLSYCLPGIVHINAQPLLAPGDGPIVLVLAPTRELAVQIQTECSKFGHSSRIRNTCVYGGVPKSQQIRDLSRGSEIVIATPGRLIDMLEIGKTNLKRVTYLVLDEADRMLDMGFEPQIRKIVDQIRPDRQTLMWSATWPKEVKQLAADYLNDPIQVQVGSLELSASHNITQIVEVVSDFEKRDRLNKYLETASQDNEYKTLIFASTKRMCDDITKYLREDGWPALAIHGDKDQRERDWVLQEFRNGRSPIMVATDVAARGIDVKGINYVINYDMPGNIEDYVHRIGRTGRAGATGTAISFFTEQNKGLGAKLISIMREANQNIPPELLKYDRRSYGGGHPRYGGGRGGRGGYGRRGGYGGGRGGYGGNRQRDGGWGNRGRSNY
# B2: Upf1-SmBiT [S. cerevisiae] / Pat1 [S. cerevisiae] (parent)
# chain 1: B1 chain 1
# chain 2: MSFFGLENSGNARDGPLDFEESYKGYGEHELEENDYLNDETFGDNVQVGTDFDFGNPHSSGSSGNAIGGNGVGATARSYVAATAEGISGPRTDGTAAAGPLDLKPMESLWSTAPPPAMAPSPQSTMAPAPAPQQMAPLQPILSMQDLERQQRQMQQQFMNFHAMGHPQGLPQGPPQQQFPMQPASGQPGPSQFAPPPPPPGVNVNMNQMPMGPVQVPVQASPSPIGMSNTPSPGPVVGATKMPLQSGRRSKRDLSPEEQRRLQIRHAKVEKILKYSGLMTPRDKDFITRYQLSQIVTEDPYNEDFYFQVYKIIQRGGITSESNKGLIARAYLEHSGHRLGGRYKRTDIALQRMQSQVEKAVTVAKERPSKLKDQQAAAGNSSQDNKQANTVLGKISSTLNSKNPRRQLQIPRQQPSDPDALKDVTDSLTNVDLASSGSSSTGSSAAAVASKQRRRSSYAFNNGNGATNLNKSGGKKFILELIETVYEEILDLEANLRNGQQTDSTAMWEALHIDDSSYDVNPFISMLSFDKGIKIMPRIFNFLDKQQKLKILQKIFNELSHLQIIILSSYKTTPKPTLTQLKKVDLFQMIILKIIVSFLSNNSNFIEIMGLLLQLIRNNNVSFLTTSKIGLNLITILISRAALIKQDSSRSNILSSPEISTWNEIYDKLFTSLESKIQLIFPPREYNDHIMRLQNDKFMDEAYIWQFLASLALSGKLNHQRIIIDEVRDEIFATINEAETLQKKEKELSVLPQRSQELDTELKSIIYNKEKLYQDLNLFLNVMGLVYRDGEISELK
# B3: Upf1-SmBiT [S. cerevisiae] / Edc3 [S. cerevisiae] (parent)
# chain 1: B1 chain 1
# chain 2: MSQFVGFGVQVELKDGKLIQGKIAKATSKGLTLNDVQFGDGGKSQAFKVRASRLKDLKVLTVASQSGKRKQQRQQQQQNDYNQNRGEHIDWQDDDVSKIKQQEDFDFQRNLGMFNKKDVFAQLKQNDDILPENRLQGHNRKQTQLQQNNYQNDELVIPDAKKDSWNKISSRNEQSTHQSQPQQDAQDDLVLEDDEHEYDVDDIDDPKYLPITQSLNITHLIHSATNSPSINDKTKGTVINDKDQVLAKLGQMIISQSRSNSTSLPAANKQTTIRSKNTKQNIPMATPVQLLEMESITSEFFSINSAGLLENFAVNASFFLKQKLGGRARLRLQNSNPEPLVVILASDSNRSGAKALALGRHLCQTGHIRVITLFTCSQNELQDSMVKKQTDIYKKCGGKIVNSVSSLESAMETLNSPVEIVIDAMQGYDCTLSDLAGTSEVIESRIKSMISWCNKQRGSTKVWSLDIPNGFDAGSGMPDIFFSDRIEATGIICSGWPLIAINNLIANLPSLEDAVLIDIGIPQGAYSQRTSLRKFQNCDLFVTDGSLLLDL
# Variants of: B1
# Test: NanoBiT (ratiometric protein-fragment complementation assay in live yeast)
# Conditions: with Dbp2 [S. cerevisiae]; four experimental replicates; read off a plot
row,Variant,screen value [log2]
1,chain 1 C122S,2

# Variants of: B2
# Test: as above
# Conditions: with Pat1 [S. cerevisiae]; four experimental replicates; read off a plot
row,Variant,screen value [log2]
1,chain 1 C122S,-1.6

# Variants of: B3
# Test: as above
# Conditions: with Edc3 [S. cerevisiae]; four experimental replicates; read off a plot
row,Variant,screen value [log2]
1,chain 1 C122S,-2.8
